Measured values reported in article PMC3322289.
Where two headings read alike, the source gives them in different places.

Experiments:
Angiotensin II, P01019 [1] = experiment: radioligand
Angiotensin II, P01019 [2] = experiment: radioligand; remark: listed apart in the source

Sequence of Angiotensin II, P01019 (P01019 whole entry, looked up): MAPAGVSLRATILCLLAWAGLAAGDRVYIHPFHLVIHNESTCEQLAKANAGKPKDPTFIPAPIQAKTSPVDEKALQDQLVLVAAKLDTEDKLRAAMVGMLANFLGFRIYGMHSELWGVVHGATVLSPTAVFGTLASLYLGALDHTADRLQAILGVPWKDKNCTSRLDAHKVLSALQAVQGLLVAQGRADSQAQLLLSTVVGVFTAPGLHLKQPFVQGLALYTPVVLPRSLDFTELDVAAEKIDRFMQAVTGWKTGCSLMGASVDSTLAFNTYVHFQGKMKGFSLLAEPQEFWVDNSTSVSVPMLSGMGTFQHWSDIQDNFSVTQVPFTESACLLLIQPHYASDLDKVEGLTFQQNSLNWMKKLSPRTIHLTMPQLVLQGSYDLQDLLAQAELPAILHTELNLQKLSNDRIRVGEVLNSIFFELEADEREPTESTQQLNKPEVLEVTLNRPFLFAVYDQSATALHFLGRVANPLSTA

B1: Angiotensin II type 1 receptor (AT1R), P25095 (protein)
chain: MALNSSAEDGIKRIQDDCPKAGRHSYIFVMIPTLYSIIFVVGIFGNSLVVIVIYFYMKLKTVASVFLLNLALADLCFLLTLPLWAVYTAMEYRWPFGNHLCKIASASVSFNLYASVFLLTCLSIDRYLAIVHPMKSRLRRTMLVAKVTCIIIWLMAGLASLPAVIHRNVYFIENTNITVCAFHYESRNSTLPIGLGLTKNILGFLFPFLIILTSYTLIWKALKKAYEIQKNKPRNDDIFRIIMAIVLFFFFSWVPHQIFTFLDVLIQLGVIHDCKISDIVDTAMPITICIAYFNNCLNPLFYGFLGKKFKKYFLQLLKYIPPKAKSHSSLSTKMSTLSYRPSDNMSSSAKKPASCFEVE
Angiotensin II, P01019 [1]
  Kd: 3.57 nM
Angiotensin II, P01019 [2]
  Kd: 3.32 nM
